Measured values from patent publication US20070172470A1, “Phosphatase regulation of nucleic acid transcription” (The Regents of the University of California, priority 2003, published 2007).

Assays:
[1] = type: biochemical; settings: PNθP as substrate
[2] = test system: PPARγ receptor activity on PPARγ promoter response element; assay: Luciferase reporter assay, ligand-activated PPARγ receptor; type: cell-based, human
Source text: Gal4-DNA binding domain-SCP1 fusion protein expression plasmids-were cotransfected in HEK293 cells with a Gal 4-TKLuc reporter plasmid and luciferase gene expression quantitated. In all panels, results of triplicate transfections are shown +/− SD. Data is expressed as fold-activation experimental/control). […] The indicated amounts of SCP1 or mutant SCP1 expression plasmids were cotransfected in HEK293 cells along with Gal 4-VP16 expression and Gal 4-TK-Luc reporter plasmids and luciferase activity was quantitated. […] The indicated receptor expression plasmids were cotransfected with their cognate promoter-reporter plasmids with or without SCP1 or mutant SCP1 expression plasmids. Cells were treated or untreated with receptor-specific ligands as described infra. […] The indicated concentrations of SCP1 and mutant SCP1 expression plasmids were cotransfected with LMX1 and E47 expression plasmids and the rat insulin 1 promoter-luciferase reporter gene. Luciferase activity was measured as described.
Tissue Culture and Transfections: Human 293, COS7 and CV1 cells were grown at 37° C. in DMEM supplemented with 10% normal calf serum (BRL). Sub-confluent cells were transfected in 6 well tissue culture dishes using Effectene (Qiagen) according to the manufacturer's instructions. Reporter and activator plasmids (100 ng each) and Flag SCP1 (80 ng) or its mutant were used per well. […]

[3] = test system: P19 mouse embryonic stem cells; assay: Neuronal differentiation of P19 cells; type: cell-based; settings: clonal P19 line, retinoic acid, selective medium
Description: P19 cells, C, differentiated GFP expressing P19 cells; D, differentiated SCP1-expressing P19 cells; F, differentiated REST/NRSF-expressing P19 cells. Numbers of NLC per field are shown. *p=0.001 compared to WT 19 cells; **p=0.008 compared to WT P19 cell using student's t-test.
P19 stably expressing REST/NRSF.
These cell lines were maintained in α-MEM/10%FBS with […] G418. To induce neuronal differentiation, P19 cells were allowed to aggregate in bacterial grade petri-dishes (Fisher) at a seeding density of 1×10^5cells/ml in the presence of 1×10^−6M all-trans retinoic acid. After 3 days of aggregation, cells were dissociated into single cells by 0.05% trypsin-0.53 mM EDTA (Gibco). Trypsin was removed by centrifugation and the cells were plated in 6 cm tissue culture dishes (Nunc). at a density of 1×10^5 cells/cm^2 in Neurobasal medium/N2 supplement (Invitrogen) in the presence or absence of 1 μg/ml fibronectin (Invitrogen). The cells were cultured for 5 days after which average cell numbers/field were determined. Cells were either lysed to prepare total RNA (Rneasy kit, Qiagen) or stained with TuJ1 antibody (Babco).
For immunostaining, cells were fixed for 10 mins with 4% paraformaldehyde. TuJ1 antibody was used at 1:2000 and secondary antibody used was FITC-conjuagated anti-mouse (1:3000).

B1: SCP1: small CTD phosphatase-1, full-length 261 aa human protein, SEQ ID NO:2 (protein, listed as Homo sapiens)
chain: MDSSAVITQISKEEARGPLRGKGDQKSAASQKPRSRGILHSLFCCVCRDDGEALPAHSGAPLLVEENGAIPKTPVQYLLPEAKAQDSDKICVVIDLDETLVHSSFKPVNNADFIIPVEIDGVVHQVYVLKRPHVDEFLQRMGELFECVLFTASLAKYADPVADLLDKWGAFRARLFRESCVFHRGNYVKDLSRLGRDLRRVLILDNSPASYVFHPDNAVPVASWFDNMSDTELHDLLPFFEQLSRVDDVYSVLRQPRPGS
pH optimum for SCP1 phosphatase activity ([1]; GST-fusion): ~5
divalent metal ion requirement of phosphatase activity ([1]; Ca2+ could not substitute): Mg^2+-dependent
ligand-activated PPARγ receptor activity [2]: inhibited
effect on neuronal differentiation [3]: did not affect the extent of neuronal differentiation
